Data on 23 molecules can be found in patent US20240240209A1, “SYNTHESIS OF ENANTIOPURE CIS-A-IRONE FROM A RENEWABLE CARBON SOURCE” (Agency for Science, Technology and Research, priority 2021, published 2024).

Residue numbers refer to the chain shown, from its start. Numbers in names are those of the source.

B1: pMT12: pMT1 with Y200F S182E L273V L180A A202L Y65F C156D T91P N231D (protein)
chain: MPQEARTPQQQVTADEVGDWYDKFGEVYHLTLGESVHCGLWFPPDAPVPQDMELVTMSSQAQDRFTDYLIETLDPKAGQHLLDIGCGTGRPALKAARQRGIAVTGVAVSKEQIAAANRLAAGHGLTERLTFEVADAMRLPYEDESFDCAWAIESLDHMDRAKALGEAWRVLKPGGDLLVAEEVVTEELTEPETALFETLFALNVPPRLGEFFDIVSGAGFHTLSLKDLSADLAMTMNVFALGVYSRRAEFTERFGAEFVDGLLAGLGSAQETVIRKTRFFMATLRKPAV
modifications: Modified from pMT1
notes: pMT1 with Y200F S182E L273V L180A A202L Y65F C156D T91P N231D
B2: T185L (protein)
chain: B1 chain with T185L
modifications: Modified from pMT1
B3: A269R (protein)
chain: B1 chain with A269R
modifications: Modified from pMT1
B4: H123N (protein)
chain: B1 chain with H123N
modifications: Modified from pMT1
B5: Q11M (protein)
chain: B1 chain with Q11M
modifications: Modified from pMT1
B6: T185V (protein)
chain: B1 chain with T185V
modifications: Modified from pMT1
B7: F212L: pMT12 with F212L (protein)
chain: B1 chain with F212L
modifications: Modified from pMT1
B8: A95V (protein)
chain: B1 chain with A95V
modifications: Modified from pMT1
B9: Q11L (protein)
chain: B1 chain with Q11L
modifications: Modified from pMT1
B10: A95L (protein)
chain: B1 chain with A95L
modifications: Modified from pMT1
B11: A95I (protein)
chain: B1 chain with A95I
modifications: Modified from pMT1
B12: E190A (protein)
chain: B1 chain with E190A
modifications: Modified from pMT1
B13: A95C: pMT12 with A95C (protein)
chain: B1 chain with A95C
modifications: Modified from pMT1
B14: A107S (protein)
chain: B1 chain with A107S
modifications: Modified from pMT1
B15: S268H: pMT12 with S268H (protein)
chain: B1 chain with S268H
modifications: Modified from pMT1
B16: A107G (protein)
chain: B1 chain with A107G
modifications: Modified from pMT1
B17: A269Y (protein)
chain: B1 chain with A269Y
modifications: Modified from pMT1
B18: A269G (protein)
chain: B1 chain with A269G
modifications: Modified from pMT1
B19: Q11V (protein)
chain: B1 chain with Q11V
modifications: Modified from pMT1
B20: Q11P (protein)
chain: B1 chain with Q11P
modifications: Modified from pMT1
B21: Q60V: pMT7 with Q60V (protein)
chain: B1 chain with Q60K, P91T, D156C, D231N
modifications: Modified from pMT1
B22: mtn: 5′-methylthioadenosine/S-adenosylhomocysteine nucleosidase, auxiliary enzyme hydrolysing SAH (protein, UniProt P0AF12 1-232, looked up)
5'-methylthioadenosine/S-adeno …: MKIGIIGAMEEEVTLLRDKIENRQTISLGGCEIYTGQLNGTEVALLKSGIGKVAAALGATLLLEHCKPDVIINTGSAGGLAPTLKVGDIVVSDEARYHDADVTAFGYEYGQLPGCPAGFKADDKLIAAAEACIAELNLNAVRGLIVSGDAFINGSVGLAKIRHNFPQAIAVEMEATAIAHVCHNFNVPFVVVRAISDVADQQSHLSFDEFLAVAAKQSSLMVESLVQKLAHG
B23: mtaD: 5-methylthioadenosine/S-adenosylhomocysteine deaminase, auxiliary enzyme deaminating SAH (protein, UniProt Q9X034 1-406, looked up)
5-methylthioadenosine/S-adenos …: MIIGNCLILKDFSSEPFWGAVEIENGTIKRVLQGEVKVDLDLSGKLVMPALFNTHTHAPMTLLRGVAEDLSFEEWLFSKVLPIEDRLTEKMAYYGTILAQMEMARHGIAGFVDMYFHEEWIAKAVRDFGMRALLTRGLVDSNGDDGGRLEENLKLYNEWNGFEGRIFVGFGPHSPYLCSEEYLKRVFDTAKSLNAPVTIHLYETSKEEYDLEDILNIGLKEVKTIAAHCVHLPERYFGVLKDIPFFVSHNPASNLKLGNGIAPVQRMIEHGMKVTLGTDGAASNNSLNLFFEMRLASLLQKAQNPRNLDVNTCLKMVTYDGAQAMGFKSGKIEEGWNADLVVIDLDLPEMFPVQNIKNHLVHAFSGEVFATMVAGKWIYFDGEYPTIDSEEVKRELARIEKELYSS

The nature of the first data set: In-vivo cis-α-irone production screening of pMT7 and pMT12 mutants. It counts as cell-based, Escherichia coli. The settings on record: mutations made to pMT12; normalized to pMT12 (=1). The procedure, abridged:
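E. coli BL21(DE3) ΔaroA ΔaroB ΔaroC ΔserC strains, with or without ΔmetJ, carried the plasmids and were grown in 1 ml auto-inducing defined medium (glucose/glycerol, 30 mM lactose) at 28 °C for 3 days. Products were extracted into hexane and measured by GC-MS. Production is a semi-quantitative fold change relative to pMT12.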
Consider B1, for which the “Fold change in in-vivo cis-α-irone production” value (from here on “Fold change”) is 1.
B2: the “Fold change” value came out at 1.07.
Still for that read-out and setting: under B3 stands 1.22; under B4, 0.91; under B5, 0.90.
The same measure, in the same setting: under B6 stands 1.14; under B7, 1.11; under B8, 0.94.
In the case of B9, the “Fold change” value turned out to be 0.92.
On to B10, for which the “Fold change” value is 0.92.
As to B11, the “Fold change” value turned out to be 0.98.
For the molecule B12, the “Fold change” value was 1.12.
Same read-out and setting: then B13, with 0.95; and B14, with 1.17; and B15, with 1.26.
With B16, the “Fold change” value is given as 0.95.
Turning to B17, the “Fold change” value came out at 1.21.
As to B18, the “Fold change” value was 1.23.
The same measure, in the same setting: then B19, with 0.88; and B20, with 0.92.

Still in this data set, the particulars now being: single mutations vs parent (pMT7 or pMT12).
As for B21, the “in-vivo production of cis-α-irone (in words)” value is given as “increased cis-α-irone production in-vivo”.

A short description of a further data set: Cell lysate reaction of pMT enzymes with psi-ionone, irones quantified by HS-SPME-GCMS. The settings on record: cell lysate reaction, vs parent or control. Format: biochemical. The procedure, abridged:
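pMT1 site-saturation mutants were expressed in E. coli BL21(DE3) and lysed, and lysates were incubated 2 days at 28 °C with 0.2 mM SAM and 10 mg/L psi-ionone (plus caryophyllene) in 50 mM Tris pH 7, 10 mM MgCl2. Cis-α-irone was measured by HS-SPME-GCMS peak area and given as fold change over non-mutated enzyme.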
As for B1, the “irone production / methyltransferase activity towards psi-ionone (in words)” value is on record as “maintained the percentage of cis-α-irone produced while further improving the absolute amount produced”.

Still in this data set, the particulars now being: single mutations vs parent (pMT7 or pMT12).
Consider B7, for which the “in-vitro production of cis-α-irone (in words)” value was “moderate increase”.
The same measure, in the same setting: under B21 stands “increased the cis-α-irone production in-vitro”; under B13, “moderate increase”; under B15, “moderate increase”.

A short description of another data set: Purified pMT7/pMT10 reaction with auxiliary enzymes mtn and mtaD. Format: biochemical. The settings on record: 20 μM SAH introduced in the purified enzymatic reaction. From the text: All the purified enzyme reactions were done in triplicates.
An alternative strategy to reduce SAH inhibition is to introduce auxiliary enzymes that degrade SAH12 (FIG. 18a). […] Noteworthy, with mtaD enzyme, cis-α-irone production by pMT10 was improved by ˜2.5 fold as compared to pMT10 reaction alone (FIG. 3c). […] This somewhat agrees with the effect of mutating D135, which abolishes the hydrogen bond interaction between pMT7 and the amine group of the adenine moiety.
Turning to B22, the “effect of supplementary auxiliary enzyme on pMT7 and pMT10 activity” value is “restored pMT7 and pMT10 activity”.
On the same count and under the same terms, then B23, with “restored pMT7 and pMT10 activity”.
